Data set [1] addresses T1, GST-Ndr (Homo sapiens, UniProt Q15208).
T1 construct: made in house
The data set can be described thus: Ndr peptide substrate phosphorylation assay. The class given is biochemical. Particulars: 0.5 mg/ml peptide, 3 h at 30° C., KKRNRRLSVA = 100%. How it is done: When incubated in vitro with Mg-ATP, Ndr incorpora tes phosphate by an intramolecular autophosphorylation mechanism (Millward, T. A., et al., (1995) Proc. Natl. Acad. Sci. USA 92, 5022-5026). […] To develop a convenient in vitro kinase assay for Ndr, an assembled library of synthetic peptides is screened for potential Ndr substrates. 5 μg GST-Ndr WT or GST-Ndr K118A (Miliward, T. A., et al., (1995) Proc. Natl. Acad. Sci. USA 92, 5022-5026), immobilised on 2.5 μl glutathione-agarose beads (Sigma), is assayed in a 25 μl reaction containing 50 mM Tris-HCl pH 7.5, […] MgCl2, 1 mM dithiothreitol, 100 μM [γ-^32 P] ATP (0.3 μCi/μl) and 0.5 mg/ml peptide. After incubation at 3 h at 30° C. (during which time phosphate incorporation into peptides is linear), aliquots of the reaction are spotted onto 2 cm^2 squares of P81 phosphocellulose paper (Whatman), which are then washed 5×5 min in 1% phosphoric acid and once in acetone, before counting in a liquid scintillation counter.
Several peptides are identified which could serve as Ndr substrates (Table 1; SEQ. ID. No. 1 to 31). By comparing the efficiency of phosphorylation of the various peptides, several conclusions regarding the substrate specificity of Ndr can be drawn. […] Secondly, most of the peptides which are detectably phosphorylated contained a basic amino acid at position -6 relative to the phosphoaccepting serine. […] A basic amino acid at -6 is however not sufficient for substrate recognition, since this peptide is also not phosphorylated. Thirdly, a basic residue at -5 appeared to be also important, although not essential, for efficient phosphorylation by Ndr. Basic amino acids at -3, -2 and -7 are also important. Proline at +1 appears to be inhibitory, whilst the presence of amino acids carboxy-terminal to the phosphoacceptor is important, removal of the residue at +2 reducing activity. The best Ndr substrate from these series of peptides is ([…], SEQ. ID. No. 1), and this peptide is used for Ndr kinase assays in subsequent experiments.

In data set [2] the test system is PP2A. The note with it: 10 nM calyculin A; cited from earlier work.
The test system of data set [3] is HA-Ndr WT. The note with it: 10 nM, 1 h. As for the experimental part:
COS-1 cells expressing HA-Ndr WT (as in Example 5) are treated either with solvent alone (Control) or with a panel of cell permeable protein phosphatase inhibitors. The cells are then extracted, HA-Ndr is immunoprecipitated with the anti-HA mAb 12CA5, and the kinase activity of Ndr measured as before, using the peptide substrate.

The test system of data set [4] is protein phosphatase 1 (PP1). Particulars: 10 nM calyculin A; cited from earlier work.
Data set [5] in a line: immune complex kinase assay, basal kinase activity of Ndr mutants. It counts as biochemical. The note with it: compared with wild-type Ndr. How it is done:
In immune complex kinase assays and autophosphorylation assays (see below), COS-1 cells are transfected as described above or with pECE-Ndr-K118A. After 72 h, cells are washed with ice-cold PBS and lysed in lysis buffer (20 mM Tris-HCl pH 8.0, 150 mM NaCl, 1% (v/v) NP-40, 10% (v/v) glycerol, 5 mM EDTA, 0.5 mM EGTA, 0.5 mM phenylmethyl-sulfonyl fluoride, 4 μM leupeptin, 1 mM benzamidine, 1 μM microcystin and 1 mM Na3 VO4). Lysates are centrifuged at 14,000 g for 20 min. Duplicate aliquots of supernatant (250 μg, 2.5 mg/ml) are incubated for 2 h at 0° C. with 10 μg/ml Ab^1-465. Immune complexes are precipitated by addition of 2 μl protein A-Sepharose (Pharmacia) and mixing for 1 h. The beads are then washed twice with lysis buffer, once with lysis buffer containing 1 M NaCl, with lysis buffer again, and finally twice with 20 mM Tris-HCl pH 7.5. Beads are resuspended in 30 μl buffer containing 20 mM Tris-HCl pH 7.5, 10 mM MgCl2, 100 μM CaCl2, 1 mM dithiothreitol, 100 μM [γ-^32 P] ATP (0.5 μCi/μls), 1 mM Ndr substrate peptide ([…], SEQ. ID. No. 1), 1 μM cAMP-dependent protein kinase inhibitor peptide (PKI; purchased from Bachem, Bubendorf, Swit zerland), 4 μM leupeptin, 1 mM benzamidine, 1 μM microcystin and, in some assays, 20 μM bovine S100B. After 60 min at 30° C., phosphate incorporation into the peptide is quantitated as described above. […]

Data set [6] relates to S100B. The data set can be described thus: co-immunoprecipitation of Ndr with anti-S100B from COS-1 cells. The note with it: co-expressed with S100B. It counts as cell-based. How it is done: For expression of Ndr and S100B in mammalian cells, the cDNAs encoding Ndr and S100B are cloned into the pECE vector, which directs expression driven by an SV40-derived promoter. In addition, an amino-terminal truncation mutant of Ndr lacking the first 84 amino acids (1-84) is used.
The plasmids encoding Ndr and S100B are transfected into COS-1 cells, either alone or in combination. Seventy-two hours later, cells extracts are prepared and immunoprecipitated with an antibody recognising S100B. In an anti-Ndr western blot of the cell extracts, it is shown that Ndr is expressed an expected.

For data set [7], the system named is calmodulin (CaM-agarose). Kind of data set: binding of Ndr and deletion mutants from COS-1 cell lysates to CaM-agarose. Particulars: lysates supplemented with Ca^2+. The text has this:
In addition, the ability of untagged Ndr to interact with CaM is investigated. COS-1 cells are transfected with pECE or with derivative plasmids encoding wild-type Ndr, NdrΔ65-81 or NdrΔ1-84 (Millward, T. A., et al., (1995) Proc. Natl. Acad. Sci. USA 92, 5022-5026) using DEAE-dextran (Seed, B. and Aruffo, A. (1987) Proc. Natl. Acad. Sci. USA 84, 3365-3369). Seventy-two hours after transfection, cells are scraped into ice-cold phosphate-buffered saline (PBS), spun down, and disrupted in buffer A (TBS containing 1 mM dithiothreitol, 0.5 mM phenylmethylsulfonyl fluoride, 4 μM leupeptin and 1 mM benzamidine) using a tight-fitting all-glass dounce homogenizer. Extracts (20 μg) are adjusted to 1 mg/ml, supplemented with either 1 mM CaCl2 or 1 mM EGTA and then mixed for 2 h with 6 μl CaM-agarose. After washing three times with 1 ml of the corresponding binding buffer, the beads are eluted with buffer A containing 5 mM EGTA. Equal portions of the unbound and EGTA-eluted fractions are analysed by immunoblofting with anti-Ndr antibodies.
Samples are separated by SDS-PAGE and electroblotted to Immobilon-P membranes (Millipore). Blots are incubated in blocking buffer (50 mM Tris-HCl pH 7.5, 150 mM NaCl, 1% (v/v) Triton X-1 00, 0.5% (v/v) Tween 20, 5% (w/v) skim milk powder) and then probed for 2 h with primary antibodies diluted in the same buffer. Ndr and GST-Ndr are detected with Ab^452-465 at 4 μg/ml (Millward, T. A., et al., Op. Cit.); GST is detected with an anti-GST antiserum (1 :1000 dilution). Bound antibodies are detected using horseradish peroxidase-conjugated donkey anti-rabbit IgG antibodies and ECL substrates (Amersham).
To verify whether this domain of Ndr is indeed responsible for its interaction with CaM, deletion mutants of Ndr are expressed in COS-1 cells and tested for CaM binding as above. […] In lysates supplemented with Ca^2 , deletion of amino acids 65-81 cause a large reduction in CaM binding (to ~10% of the level of wild-type binding) as assessed by western blotting.

Data set [8] relates to Ndr. The note with it: transphosphorylation; cited from earlier work.
Data set [9] has as its target T1, GST-Ndr. Kind of data set: GST-Ndr peptide kinase assay with calcium-binding proteins. It counts as biochemical. Particulars: added together with Ca^2+; 60 min, 30° C. As for the experimental part: 1 μg GST-Ndr WT or GST-Ndr K118A, either in solution or immobilised on glutathione-agarose beads, is assayed in a 20 μl reaction containing 20 mM Tris-HCl pH 7.5, 5 mM MgCl2, 1 mM dithiothreitol, 100 μM [γ-^32 P] […] Reactions are supplemented with either 2 mM EGTA or various concentrations of CaCl2. Bovine CaM, bovine S100B (both from Sigma) or recombinant calcium-binding proteins. After incubation at 30° C. for 60 min, aliquots of the reaction are spotted on to P81 phosphocellulose paper and counted as above.
In brief, coding regions are cloned into the PGEMEX expression vector (Promega) and resultant plasmids used to transform E. coli BL-21 LysS cells. After induction, S100 proteins are purified by ammonium sulphate precipitation followed by Ca^2+ -dependent phenyl-Sepharose chromatography.
The proteins are added together with Ca^2+ into GST-N dr peptide kinase assays. The proteins tested comprised S100A1 (S100α), S100A2 (S100L), S100A4 (CAPL), S100A6 (calcyclin) and S100B (S100β); α-parvalbumin is included as a negative control.
In order to estimate the binding affinity of S100B for Ndr, kinase assays are performed in which GST-Ndr is mixed with various concentrations of purified bovine S100B homodimer, in the presence or absence of calcium.
To determine whether activation of Ndr by S100B occurs at physiological Ca^2+ concentrations, Ndr activity is assayed with or without added S100B over a range of Ca^2+ concentrations.

Data set [10] concerns HA-Ndr WT. Kind of data set: A23187 treatment of COS-1 cells co-expressing HA-Ndr WT and S100B, Ndr kinase activity. The class given is cell-based. Particulars: 20 μM A23187. How it is done:
In order to provide direct evidence that Ca^2+ /S100B regulates Ndr activity in vivo, COS-1 cells are co-transfected with expression constructs for Ndr and S100B (pECE-HA-Ndr, which expresses haemaglutinin epitope-tagged Ndr from an SV40 promoter, and pECE-S100B). Two Ndr constructs are used, expressing either wild-type Ndr (Ndr WT) or Ndr lacking the previously identified S100B binding domain (Ndr Δ65-81).Then, the cells are treated for various lengths of time with 20 μM A23187, a calcium ionophore.

Entries after “also recorded” stand apart in the source; their conditions may differ.

T1 sequence (Q15208 whole entry): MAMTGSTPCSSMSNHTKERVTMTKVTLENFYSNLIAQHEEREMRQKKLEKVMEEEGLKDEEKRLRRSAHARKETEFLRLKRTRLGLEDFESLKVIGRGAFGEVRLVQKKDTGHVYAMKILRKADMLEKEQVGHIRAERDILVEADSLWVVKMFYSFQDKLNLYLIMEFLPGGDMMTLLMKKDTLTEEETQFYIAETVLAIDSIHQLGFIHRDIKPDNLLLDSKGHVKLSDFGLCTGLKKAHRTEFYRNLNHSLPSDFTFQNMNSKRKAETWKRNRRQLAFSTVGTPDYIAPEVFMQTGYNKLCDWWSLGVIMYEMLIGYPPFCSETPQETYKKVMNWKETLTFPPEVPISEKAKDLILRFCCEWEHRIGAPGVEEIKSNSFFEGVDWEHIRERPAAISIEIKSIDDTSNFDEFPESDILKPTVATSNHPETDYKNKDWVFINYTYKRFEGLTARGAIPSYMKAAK

Take KKLNRRLSVA [SEQ. ID. No. 3]: the “Relative Ndr Activity” value in [1] turned out to be 18%.

`COC[C@@H]([C@H](O)[C@H](O)C(=O)NCC[C@H](C)c1nc(/C=C/C[C@@H]2O[C@]3(C[C@@H](O)[C@@H]2C)O[C@H]([C@H](C[C@H](O)[C@H](C)[C@H](O)[C@H](C)/C=C(C)/C(C)=C/C=C/C(C)=C\C#N)OC)[C@H](OP(=O)(O)O)C3(C)C)co1)N(C)C` [calyculin A]: in data set [2], the “inhibition of PP2A” value is recorded as ~ 50%. For the same compound, in [3], the “activation of Ndr” value was ~ 4 fold. For the same compound, in data set [4], the “inhibition of PP1” value is given as ~ 50%.

For “Δ1-84: Ndr deletion mutant lacking the complete amino terminal domain”, in data set [5], the basal kinase activity entry is listed as “only slightly reduced; also recorded: reduced basal kinase activity”. Also, the “co-immunoprecipitation with anti-S100B” value in [6] is “abolishes co-immunoprecipitation”. Further, the “binding to CaM-agarose” value in data set [7] was “no longer detectable”.

For KKRNRTLSV [SEQ. ID. No. 8], the “Relative Ndr Activity” value in [1] is 24%.

With AARNRTLSVA [SEQ. ID. No. 7], the “Relative Ndr Activity” value in [1] is 0%.

For the compound KKRNRTLSPA [SEQ. ID. No. 10], in [1], the “Relative Ndr Activity” value was 0%.

KKRNRTLSVA [SEQ. ID. No. 6]: the “Relative Ndr Activity” value in data set [1] amounted to 60%.

Take casein: the “substrate of Ndr” value in data set [8] is listed as “not substrates of Ndr”.

On to “KARNRRLSVA (LARNRRLSVA) [SEQ. ID. No. 2]”, for which, in data set [1], the “Relative Ndr Activity” value was found to be 39%.

Take KKRNARLSVA [SEQ. ID. No. 4]: the “Relative Ndr Activity” value in data set [1] is reported as 15%.

Regarding KKRNRALSVA [SEQ. ID. No. 5], the “Relative Ndr Activity” value in [1] came to 30%.

With myelin basic protein, in data set [8], the “substrate of Ndr” value was “not substrates of Ndr”.

For “S100A1: S100 family protein, phylogenetically the closest known relative of S100B”, the “increase in Ndr kinase activity” value in [9] is listed as 2-3 fold.

Take `CNc1ccc2oc(C[C@H]3O[C@@]4(CC[C@H]3C)O[C@H]([C@H](C)C(=O)c3ccc[nH]3)[C@H](C)C[C@H]4C)nc2c1C(=O)O` [A23187]: the “activation of HA-Ndr” value in data set [10] is on record as “activation of HA-Ndr WT”.

As for KKRNRRLSVA [SEQ. ID. No. 1], the “Relative Ndr Activity” value in data set [1] came out at 100%.

In the case of KKRNRTLTV [SEQ. ID. No. 9], the “Relative Ndr Activity” value in data set [1] amounted to 0%.

Source of the values: patent US6258776A, “Calcium-regulated kinase” (priority 1997, dated 2001).
